Laboratory results as given in publication PMC4136698.
Where two headings read alike, the source gives them in different places.

Legend:
Experiment in all cases: pull-down
[1] = biological target: SH2 affinity peptide (EPQpYEEIPIYL)
[2] = biological target: SH2 affinity peptide (EPQpYEEIPIYL); remark: listed apart in the source
[3] = biological target: SNAP tag–polyproline peptide fusion (…)

Hck (residues 84–531) (enzyme)
percent retained relative to Hck–1 [1]: 17% | percent retained relative to Hck–1 [2]: 2%

Hck^Y527F (enzyme)
percent of kinase retained by the immobilized SH3 domain ligand [3]: 38% | percent of total kinase retained on beads [3]: 2%
